From publication PMC6065417, “Neutralization of Junín virus by single domain antibodies targeted against the nucleoprotein” (Scientific Reports, 2018)

Tests used:
Settings in all cases: one partner purified
[1] = target: T1, Junín virus nucleoprotein (N) in Candid#1-infected cells (Junin mammarenavirus, Candid#1, UniProt F4ZL09, strain); experiment: co-IP
T1 construct: also called viral N; Candid#1N

[2] = target: T2, Junín virus nucleoprotein (N) of strain Candid#1, expressed from a plasmid (Junin mammarenavirus, Candid#1, UniProt F4ZL09, strain); experiment: immunostaining of cells or tissue
T2 construct: also called N from Candid#; Candid#1N; source: Vero cells, transfected (Fugene), in fixed and permeabilized cells

[3] = target: T3, Junín virus nucleoprotein (N) of strain XJCl3, expressed from a plasmid (Junín virus (Junin mammarenavirus), …, UniProt F4ZL09, strain); experiment: immunostaining of cells or tissue
T3 construct: also called N from XJCl3

Measured: binding result

B1: VHH 2.3 (VHH)
VHH: QVQLVESGGGLVQPGGSLRLSCAASGSIDSINAMAWYRQAPGKERELVAGISKNGIPWYLDSLKGRFNVSRDNAKNTLYLQIHNLKPEDAAMYYCASSSRTIATTTNEFDFWGQGTQVTVSS
notes: source: E. coli, periplasmic extract, purified (Ni-NTA); not shown: His6, C-terminal, kept
binds: [1] | [2] | [3]
